Results from the supplement of paper PMC9732359.
± gives the uncertainty stated by the source.

Test: protein stability index of a GFP-peptide fusion (yeast GPS) (PSI 1-4); higher = more stable; sorted into four equal gates, so the index is relative within each strain
Conditions: san1∆
Method in brief: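 Plasmids in a pooled yeast library fused tiled 17-residue yeast protein peptides downstream of GFP and also expressed Cherry. Mid-log cultures grown without leucine were sorted into four equal gates by GFP/Cherry fluorescence ratio. Each gate's plasmids were PCR-amplified and Illumina-sequenced, and reads were matched to strains by barcodes. The protein stability index is derived by multiplying each gate's read frequency by its gate number and summing the results.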

Row | Sequence | protein stability index
1 | QRDAEISQPKSMSGRIS [BRR2] | 3.23 ± 0.062

Same assay, conditions: ubr1∆

Row | Sequence | protein stability index
2 | PRVQGFYVPQARNVTFD [GRR1] | 3.02 ± 0.045
3 | PRYTYHTIFSDVCKTRF [YML031W/NDC1] | 2.82 ± 0.055
4 | PSAVAGFINQKNLKPQE [YIL149C/MLP2] | 3.02 ± 0.042
5 | PSINLDPDNTSFSDENS [ESC2] | 3.07 ± 0.029
6 | PSKVSKIDSHVVLSFSG [PRE6] | 1.87 ± 0.057
7 | PSLEVASEYIETLGLKY [FAS1] | 3.05 ± 0.067
8 | PSQTLFSISYKPPTQKT [SRP21] | 2.1 ± 0.032
9 | PSSEVYSPIEKESPWKI [RRP6] | 3.29 ± 0.11
10 | PSTSSNMDVGNPRKRKA [GAL11] | 3.27 ± 0.088
11 | PSTTDDENGDKNDNGGK [SWI3] | 3.25 ± 0.079
12 | PSVAAEYVYFFNNTSVI [RPC40] | 1.79 ± 0.039
13 | PSYSPTSPSYSPTSPSY [RPO21] | 2.815 ± 0.023
14 | PTETYSDVGGLDKQIEE [RPT5] | 3.21 ± 0.13
15 | PTQTKGNDAKPAKVEDV [YLR335W/NUP2] | 3.1 ± 0.047
16 | PTSPSYSPTSPSYSPTS [RPO21] | 2.85 ± 0.037
17 | PTSVKLLKTTVPIVSKK [POP3] | 3 ± 0.075
18 | PTTMVTNQKDTNDHVDK [ISW2] | 1.75 ± 0.055
19 | PTTVSYIFCISRTIGMV [SCL1] | 1.95 ± 0.039
20 | PTVKYNRKVRAGRGFTL [RPL13A] | 2.78 ± 0.053
21 | PVLNLDKLWTLIPEDKR [RPL28] | 1.17 ± 0.036
22 | PVLSTIAFLVGLVNPKT [SWI3] | 2.86 ± 0.042
23 | PVNTGVLHVSAKGKSGV [RRP40] | 2.64 ± 0.13
24 | PVPSDSTRKKGGRRGRR [RPS14B] | 3.27 ± 0.071
25 | PVRTIVPISTSQTNNSF [SIR4] | 2.28 ± 0.034
26 | PWVVYLQILAMLLLNIF [YMR129W/POM152] | 1.16 ± 0.08
27 | PYEMYKYVHVSEVGNCS [FAS2] | 2.11 ± 0.048

Row | Sequence | protein stability index
28 | QAIITERLVEFSNVNEL [YIL149C/MLP2] | 3.31 ± 0.12
29 | QAIKEASYVNIPVIALT [RPS0A] | 1.78 ± 0.057
30 | QAISYLHKLQRMRLRAL [GRR1] | 1.49 ± 0.028
31 | QANQVKRHSYAQSSHIR [RPS1A] | 2.471 ± 0.019
32 | QANTEPENITKREASRG [MCD1] | 3.13 ± 0.047
33 | QAPKQRRRTYRAHGRIN [RPL17A] | 2.09 ± 0.091
34 | QARIILNHILEKSTQLQ [YGR119C/NUP57] | 2.79 ± 0.043
35 | QARTATLKYICAECSSK [RPC10] | 2.79 ± 0.073
36 | QCCEFMTMLTPNYLHLV [YML103C/NUP188] | 1.68 ± 0.041
37 | QDSIFQRIIADLSADKP [SRB8] | 2.52 ± 0.032
38 | QDVAAKCKEVGITAVHV [RPS14B] | 2.18 ± 0.037
39 | QDVDDAHAIDQMTWRQW [POP8] | 2.5 ± 0.076
40 | QEAFKIYQHLASHNEKD [SRP72] | 2.89 ± 0.1
41 | QEEFVQFLQLDNDGFSF [ECM29] | 2.41 ± 0.11
42 | QEPFLNSSNYAELFNND [PRP8] | 2.82 ± 0.048
43 | QEQLKNVKNDVSFNDSQ [YIL149C/MLP2] | 3.31 ± 0.053
44 | QERQRQIQKNGPEITPE [PRP8] | 2.85 ± 0.092
45 | QESFVPNSERSGTPTLK [YOR098C/NUP1] | 1.79 ± 0.19
46 | QEYLNPVIDTQIANEFN [YDL116W/NUP84] | 2.88 ± 0.052
47 | QFKTTIKDTANDNDITV [UBP6] | 1.67 ± 0.041
48 | QFLRLIFVSILSDRANK [ARP9] | 1.2 ± 0.027
49 | QFTGFLLHEMTQTYMQM [GRR1] | 1.9 ± 0.041
50 | QGDEALSVDDIRGAVGN [RTT102] | 3.41 ± 0.085
51 | QGEVGAVFIVPKILIRE [SWP82] | 2.13 ± 0.2
52 | QGFSKDTFELIKTFLVD [YDL116W/NUP84] | 3.25 ± 0.043
53 | QGGFYKQQDAEELFTQL [UBP6] | 3.21 ± 0.075

Row | Sequence | protein stability index
54 | QGKSKLIIIAANTPVLR [RPL30] | 2.99 ± 0.078
55 | QGPRSYFLDVKCPGCLN [RPS27A] | 2.6 ± 0.11
56 | QGRDTSKLPDPERWLPL [SRP72] | 2.93 ± 0.17
57 | QGSMSERPPYILNSYGV [SIR2] | 2.87 ± 0.045
58 | QGTNSVPNSIGNIFSNI [SNF5] | 2.98 ± 0.052
59 | QHQRIVAFVCSPISDSR [RPN10] | 2.3 ± 0.16
60 | QIENLNEVCLEKENRFE [SMC4] | 3.4 ± 0.068
61 | QILPESQWNDSSIDKIE [SIR3] | 2.81 ± 0.12
62 | QINKAQILENYNALFQQ [YJL039C/NUP192] | 3.03 ± 0.047
63 | QIPLHRAASVGSLKLIE [NAS6] | 1.83 ± 0.1
64 | QIPVYDTFDGSDLRVLS [FAS1] | 2.69 ± 0.058
65 | QIQKNGPEITPEEATTI [PRP8] | 3.12 ± 0.16
66 | QITLTFISELCSIEPIA [YML103C/NUP188] | 1.82 ± 0.055
67 | QIVSYCSNNKNSIKNVP [SSN2] | 1.79 ± 0.083
68 | QIYTQRAYMRPLGVILT [SCL1] | 1.64 ± 0.036
69 | QKEQNVNNRDSEKGFSK [YCS4] | 2.97 ± 0.036
70 | QKKATMSAEEALVYSYI [RPC34] | 1.36 ± 0.22
71 | QKSVSLLSSESNIPTLI [YDL116W/NUP84] | 2.67 ± 0.05
72 | QLASQLVDLKKELAELK [RPL35A] | 3.35 ± 0.078
73 | QLCQITCQILESGEDEA [RRP46] | 1.99 ± 0.061
74 | QLDDEDFDLLNKTLTFE [FAS1] | 3.16 ± 0.085
75 | QLNSRAVAVVVDPIQSV [RPN11] | 1.48 ± 0.051
76 | QLSKAAKAAAALAGGKK [RPS25A] | 1.77 ± 0.047
77 | QLSLDASKTNLRLTDVT [GAL11] | 3.16 ± 0.047
78 | QLTEFWTELCQREFKEI [NNF1] | 3.09 ± 0.069
79 | QLVIQQGTGKKTASLGN [ISW2] | 3.41 ± 0.24

Row | Sequence | protein stability index
80 | QMMARMAQTATQQQPGA [SRP54] | 2.27 ± 0.044
81 | QMMQQAQQKLKQNPGLM [SRP54] | 3.119 ± 0.031
82 | QNDFLFSVGESLSVVAG [ECM29] | 2.71 ± 0.061
83 | QNEMIDAIAVTKGHGFE [RPL3] | 3.34 ± 0.076
84 | QNENLPSDKSDSMVDKE [SSN2] | 2.57 ± 0.077
85 | QNISPVYSVDPLEKITD [PRP8] | 2.85 ± 0.079
86 | QNLRKELLIYKKSQCKK [YIL149C/MLP2] | 1.63 ± 0.068
87 | QNPENLLSEKILQYFEK [SIR3] | 3.2 ± 0.072
88 | QPAKEKGVTEKDAVDYS [RRP6] | 3.42 ± 0.062
89 | QPKPLFSFGKSDAAKEP [YOR098C/NUP1] | 2.72 ± 0.085
90 | QPSDVKPTSHKQLQQPK [SIR4] | 3.06 ± 0.076
91 | QPWQMDTNNEADLMALE [SNF12] | 3.2 ± 0.036
92 | QQAQARLQQGRRLPMTM [SNF2] | 3.22 ± 0.048
93 | QQNPKFLQSQRQQQQRS [SWI1] | 2.05 ± 0.067
94 | QQNYSKVLLPSINISCV [SWI1] | 2.53 ± 0.054
95 | QQPTASDNIASLQYINI [SMD1] | 3.24 ± 0.078
96 | QQQDQPEQSEQPEQHQD [RPN10] | 3.24 ± 0.059
97 | QQQGQIPQSQQVPQVRS [SNF5] | 2.36 ± 0.048
98 | QQQMANNNGNPGTTSTG [GAL11] | 3.31 ± 0.043
99 | QQQNASSKLYQMQQQQQ [GAL11] | 1.78 ± 0.064
100 | QQQQQNQQQQNQQPQQQ [SWI1] | 2.85 ± 0.038
101 | QQQQQQQNPKFLQSQRQ [SWI1] | 3.25 ± 0.064
102 | QQQQTSPPPQTHQSPPP [SNF5] | 2.901 ± 0.014
103 | QQRGITYLNEVLEKDAA [YGR119C/NUP57] | 3.13 ± 0.09
104 | QRDAEISQPKSMSGRIS [BRR2] | 3.18 ± 0.051
